± gives the standard error. For part of these data: This sample holds only a part of the variants without activity.
B1: glmS ribozyme (parent)
chain: AUAAAAGCGCCAGAACUACAGAAAUGUAGUUGACGAGGAGGAGGUUUAUCGAAUUUUCGGCGGAUGCCUCCAAA

Columns and labels:
Conditions in all cases: with glucosamine-6-phosphate
[1] = variants of: B1; assay: kcat; higher = faster cleavage; RNA array
Procedure, shortened: (§1)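 Barcoded ribozyme variants were transcribed in situ on sequenced MiSeq chips by E. coli RNA polymerase. At 37 °C, a hybridised Cy3 probe tracked them while glucosamine-6-phosphate (40 μM to 10 mM) in HEPES/KCl/Mg(OAc)2 buffer flowed in and tiles were imaged over ~14 h. Per-tile medians of signals normalised to baseline and to non-cleaving reference variants were fit to one- or two-exponential decays, giving kobs. kcat and KM came from weighted Michaelis–Menten fits across concentrations.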

[2] = variants of: B1; assay: KM; higher = weaker cofactor use; RNA array
Procedure, shortened: as §1

[3] = variants of: B1; assay: self-cleavage kobs at 10000 uM GlcN6P; higher = faster cleavage; RNA array
Procedure, shortened: as §1

[4] = variants of: B1; assay: self-cleavage kobs at 640 uM GlcN6P; higher = faster cleavage; RNA array
Procedure, shortened: as §1

[5] = variants of: B1; assay: self-cleavage kobs at 2500 uM GlcN6P; higher = faster cleavage; RNA array
Procedure, shortened: as §1

[6] = variants of: B1; assay: self-cleavage kobs at 40 uM GlcN6P; higher = faster cleavage; RNA array
Procedure, shortened: as §1

[7] = variants of: B1; assay: self-cleavage kobs at 160 uM GlcN6P; higher = faster cleavage; RNA array
Procedure, shortened: as §1

Row | Variant | kcat [1] | KM [2] | self-cleavage kobs at 10000 uM GlcN6P [3] | self-cleavage kobs at 640 uM GlcN6P [4] | self-cleavage kobs at 2500 uM GlcN6P [5] | self-cleavage kobs at 40 uM GlcN6P [6] | self-cleavage kobs at 160 uM GlcN6P [7]
1 | A14C U49G | 0.000151 ± 5.2e-06 s⁻¹ | 6690 ± 570 µM | 9.07e-05 ± 1.3e-05 s⁻¹ | – | – | – | –
2 | C34U U69C | < 1e-05 s⁻¹ | – | – | – | – | – | –
3 | G41C U54G | 0.000435 ± 5.6e-05 s⁻¹ | 1610 ± 450 µM | 0.000363 ± 4.8e-05 s⁻¹ | 0.000123 ± 2.4e-05 s⁻¹ | 0.000354 ± 8.9e-05 s⁻¹ | – | –
4 | U30G G60A | 1.25e-05 ± 1.8e-06 s⁻¹ | – | – | – | – | < 1e-05 s⁻¹ | < 1e-05 s⁻¹
5 | C16U G66C | 0.000514 ± 9.1e-05 s⁻¹ | 657 ± 250 µM | 0.000398 ± 7.3e-05 s⁻¹ | 0.000282 ± 4e-05 s⁻¹ | 0.000496 ± 7.3e-05 s⁻¹ | – | 9.64e-05 ± 2.1e-05 s⁻¹
6 | U47A U55C | 0.0198 ± 0.0084 s⁻¹ | – | 0.024 ± 0.0055 s⁻¹ | 0.00441 ± 0.0013 s⁻¹ | 0.0089 ± 0.0023 s⁻¹ | 0.000537 ± 8.5e-05 s⁻¹ | 0.00116 ± 0.00033 s⁻¹
7 | G32C A52G | 1.94e-05 ± 5.2e-06 s⁻¹ | – | – | – | – | – | –
8 | A12U U54G | 0.0434 ± 0.021 s⁻¹ | – | 0.0363 ± 0.0092 s⁻¹ | 0.0495 ± 0.012 s⁻¹ | 0.0405 ± 0.019 s⁻¹ | 0.00183 ± 0.00035 s⁻¹ | 0.00452 ± 0.00078 s⁻¹
9 | G38C C68A | 1.39e-05 ± 4.4e-06 s⁻¹ | – | – | – | – | < 1e-05 s⁻¹ | –
10 | G41A U45C | 0.0002 ± 3.8e-05 s⁻¹ | 303 ± 140 µM | 0.000372 ± 0.00017 s⁻¹ | 0.000158 ± 3.6e-05 s⁻¹ | 0.000154 ± 3.9e-05 s⁻¹ | – | 6.67e-05 ± 1.8e-05 s⁻¹
11 | A12U G66U | 0.00516 ± 0.00082 s⁻¹ | 1550 ± 380 µM | 0.00479 ± 0.00055 s⁻¹ | 0.00128 ± 0.00014 s⁻¹ | 0.00319 ± 0.00044 s⁻¹ | 0.000146 ± 1.8e-05 s⁻¹ | 0.000589 ± 0.0001 s⁻¹
12 | A42G A48G | 9.11e-05 ± 9e-06 s⁻¹ | – | 3.86e-05 ± 1.7e-05 s⁻¹ | – | – | – | –
13 | A14C C50A | < 1e-05 s⁻¹ | – | – | – | – | – | –
14 | U47A C68U | 0.00394 ± 0.0013 s⁻¹ | 3290 ± 1500 µM | 0.00346 ± 0.00049 s⁻¹ | 0.00068 ± 0.00012 s⁻¹ | 0.00129 ± 0.00025 s⁻¹ | 7.13e-05 ± 1.3e-05 s⁻¹ | 0.000161 ± 3.2e-05 s⁻¹
15 | A33G U65A C70G | 4e-05 ± 6.6e-06 s⁻¹ | 627 ± 310 µM | – | – | – | < 1e-05 s⁻¹ | –
16 | A42C U49G | 1.03e-05 ± 3.2e-07 s⁻¹ | 512 ± 51 µM | – | – | – | – | –
17 | G43U U65A | 4.13e-05 ± 2e-06 s⁻¹ | 5670 ± 730 µM | 2.64e-05 ± 1.1e-05 s⁻¹ | < 1e-05 s⁻¹ | – | – | < 1e-05 s⁻¹
18 | A39U A42C | 0.000556 ± 3.1e-05 s⁻¹ | 3030 ± 290 µM | 0.000419 ± 3.9e-05 s⁻¹ | 9.53e-05 ± 1.1e-05 s⁻¹ | 0.000273 ± 3.6e-05 s⁻¹ | – | 2.58e-05 ± 7.6e-06 s⁻¹

— the supplement of paper PMC7125110
